T1: MdASG1-GST (Malus domestica (apple; library from …, UniProt A0A498KLW2 21-457)
T1 sequence: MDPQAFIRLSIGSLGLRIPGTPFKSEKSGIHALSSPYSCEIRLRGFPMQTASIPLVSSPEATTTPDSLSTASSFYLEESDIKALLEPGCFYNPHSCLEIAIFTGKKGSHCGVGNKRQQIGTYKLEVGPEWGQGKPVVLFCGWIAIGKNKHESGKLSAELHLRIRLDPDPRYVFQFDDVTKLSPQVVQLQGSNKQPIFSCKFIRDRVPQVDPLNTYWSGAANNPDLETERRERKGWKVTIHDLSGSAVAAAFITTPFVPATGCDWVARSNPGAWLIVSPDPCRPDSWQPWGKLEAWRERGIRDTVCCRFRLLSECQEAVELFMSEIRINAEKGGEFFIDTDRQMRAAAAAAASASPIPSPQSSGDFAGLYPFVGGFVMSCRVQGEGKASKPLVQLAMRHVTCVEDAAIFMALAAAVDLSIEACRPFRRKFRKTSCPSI

B1: p4MdLOX1a-2-M6 (dsDNA)
DNA 1: AATTACGCAGGGATTACATCTATGTCATCTTAAAGCCAGCTAACTTTCGGGATAA
DNA 2: TTATCCCGAAAGTTAGCTGGCTTTAAGATGACATAGATGTAATCCCTGCGTAATT
B2: p4MdLOX1a-2 (dsDNA)
DNA 1: AATTACGCAGGGATTACATCTATGTCATCTTAAAGCCAGCTAACTTTCGGGATAAACGATTTTGTAC
DNA 2: GTACAAAATCGTTTATCCCGAAAGTTAGCTGGCTTTAAGATGACATAGATGTAATCCCTGCGTAATT
B3: Mutant-M1 (dsDNA)
DNA 1: GATTACATCTATGTCATCTTAAAGCCAGCTAACTTTCGGGATAAATTACCTTATAC
DNA 2: GTATAAGGTAATTTATCCCGAAAGTTAGCTGGCTTTAAGATGACATAGATGTAATC

Each binder was assayed against T1, MdASG1-GST (assay: EMSA; LightShift Chemiluminescent EMSA kit binding buffer (composition, salt and pH not stated), 24 °C, 15 min). Conditions: protein: recombinant; tags: GST (pGEX-4T, N-terminal); label: biotin; blunt.
B1: no binding. B2: binds. B3: no binding.

From PMC11464680, “ABIOTIC STRESS GENE 1 mediates aroma volatiles accumulation by activating MdLOX1a in apple”
